Assay results: patent publication US20210030857A1 (NGM BIOPHARMACEUTICALS, published 2021)

Key:
[1] = target: T1, human beta klotho mutant H657A on HEK-293T cells (human, UniProt Q86Z14 1-1044); assay: shotgun alanine mutagenesis, FACS on HEK-293T cells, antibody 0.5 µg/ml
T1 sequence: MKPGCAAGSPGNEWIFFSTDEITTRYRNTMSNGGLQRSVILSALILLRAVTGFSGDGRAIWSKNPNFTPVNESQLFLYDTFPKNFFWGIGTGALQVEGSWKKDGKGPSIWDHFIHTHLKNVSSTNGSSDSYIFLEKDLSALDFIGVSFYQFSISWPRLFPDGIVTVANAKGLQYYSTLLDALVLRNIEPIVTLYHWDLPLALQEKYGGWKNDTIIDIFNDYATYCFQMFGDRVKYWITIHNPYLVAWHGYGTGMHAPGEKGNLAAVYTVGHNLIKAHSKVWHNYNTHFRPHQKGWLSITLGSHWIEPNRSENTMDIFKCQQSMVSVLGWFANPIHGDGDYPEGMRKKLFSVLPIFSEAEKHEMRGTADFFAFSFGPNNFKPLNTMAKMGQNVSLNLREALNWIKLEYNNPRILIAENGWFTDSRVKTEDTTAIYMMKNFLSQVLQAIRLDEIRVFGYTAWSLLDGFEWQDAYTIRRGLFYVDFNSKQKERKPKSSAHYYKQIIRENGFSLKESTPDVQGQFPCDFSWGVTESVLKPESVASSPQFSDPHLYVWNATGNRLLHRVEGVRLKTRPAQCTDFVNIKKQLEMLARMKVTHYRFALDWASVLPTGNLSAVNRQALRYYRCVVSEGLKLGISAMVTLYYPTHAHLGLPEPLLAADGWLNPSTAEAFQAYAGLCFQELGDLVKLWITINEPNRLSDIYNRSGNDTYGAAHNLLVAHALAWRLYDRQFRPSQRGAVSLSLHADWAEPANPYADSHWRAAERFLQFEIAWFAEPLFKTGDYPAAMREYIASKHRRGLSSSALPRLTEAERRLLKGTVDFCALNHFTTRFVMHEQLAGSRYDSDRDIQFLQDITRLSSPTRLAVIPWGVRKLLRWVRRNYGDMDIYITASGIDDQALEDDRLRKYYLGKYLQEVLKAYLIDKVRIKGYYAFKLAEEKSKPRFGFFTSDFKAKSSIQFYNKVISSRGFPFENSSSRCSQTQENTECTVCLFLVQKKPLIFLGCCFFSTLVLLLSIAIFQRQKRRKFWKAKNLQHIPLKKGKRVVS
Method: (§1) In order to further identify specific binding residues within human beta klotho KL2 domain, shotgun mutagenesis was used to separately mutate individual residues of the KL2 domain of human beta klotho to an alanine (e.g., residues F508A-L1008A). […] For example, screening of the beta klotho mutant proteins was conducted at a concentration of 0.5 μg/ml for the humanized 5H23 antibody, 1.0 μg/ml for the Fab fragment, and 2.0 μg/ml for a positive control polyclonal anti-beta klotho antibodies.
(§2) The resulting mapping identified three specific binding residues, H657, Y701 and R703, which were negative for binding by the humanized 5H23 antibody, but were positive for the control polyclonal anti-beta klotho antibodies. These residues represented amino acids whose side changes made the highest energetic contributions to the antibody-epitope interation as shown in Table 31. The locations of the three identified residues were modeled by showing them (dark spheres) at the equivalent positions on human cytosolic beta-glucosidase (PDB ID #2JFE; Tribolo et al., J. Mol. Biol. 370, 964-975 (2007)), identified by BLAST alignment of the two proteins as shown in FIG. 6.

[2] = target: T2, human beta klotho mutant R703A on HEK-293T cells (human, UniProt Q86Z14 1-1044); assay: as above
T2 sequence: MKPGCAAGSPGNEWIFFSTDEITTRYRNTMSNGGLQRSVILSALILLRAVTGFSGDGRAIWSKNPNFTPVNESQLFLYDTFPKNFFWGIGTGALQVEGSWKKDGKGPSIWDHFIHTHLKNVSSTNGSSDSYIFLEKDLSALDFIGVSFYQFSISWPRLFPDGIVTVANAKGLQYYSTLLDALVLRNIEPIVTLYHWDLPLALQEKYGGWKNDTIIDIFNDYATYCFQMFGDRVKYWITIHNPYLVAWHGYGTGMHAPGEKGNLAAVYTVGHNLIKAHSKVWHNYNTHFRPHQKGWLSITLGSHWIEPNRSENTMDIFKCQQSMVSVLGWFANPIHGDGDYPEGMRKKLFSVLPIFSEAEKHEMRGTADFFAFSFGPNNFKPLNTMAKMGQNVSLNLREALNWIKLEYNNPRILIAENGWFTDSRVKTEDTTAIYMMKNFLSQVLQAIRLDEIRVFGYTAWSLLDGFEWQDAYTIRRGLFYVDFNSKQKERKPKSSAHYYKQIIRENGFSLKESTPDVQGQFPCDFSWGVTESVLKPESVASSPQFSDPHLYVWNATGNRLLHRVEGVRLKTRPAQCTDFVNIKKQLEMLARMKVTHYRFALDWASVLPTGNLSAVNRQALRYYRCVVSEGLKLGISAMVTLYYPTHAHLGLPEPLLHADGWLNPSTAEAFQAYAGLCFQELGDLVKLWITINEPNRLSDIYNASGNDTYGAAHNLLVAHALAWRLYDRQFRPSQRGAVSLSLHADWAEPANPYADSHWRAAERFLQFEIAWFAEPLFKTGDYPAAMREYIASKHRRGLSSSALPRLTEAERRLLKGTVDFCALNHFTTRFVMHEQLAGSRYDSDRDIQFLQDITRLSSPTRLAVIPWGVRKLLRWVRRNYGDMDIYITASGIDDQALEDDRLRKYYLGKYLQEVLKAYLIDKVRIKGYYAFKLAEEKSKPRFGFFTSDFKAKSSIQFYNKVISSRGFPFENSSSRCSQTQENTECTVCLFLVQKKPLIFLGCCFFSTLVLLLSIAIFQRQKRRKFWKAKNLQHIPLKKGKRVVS
Method: as §1, §2

B1: humanized 5H23 antibody (VH SEQ ID NO: 271 and VL SEQ ID NO: 276) (antibody, V domains shown)
VH: QVQLQQSGAEVKKPGASVKVSCKASGYTFTSYDINWVRQAPGQGLEWIGWIYPGDGSTKYNEKFKGKATITRDTSASTAYMELSSLRSEDTAVYFCARSDYYGSRSFAYWGQGTLVTVSS
VL: DIVMTQSPDSLAVSLGERATINCRASKSVSTSGYVYMHWYQQKPGQPPKLLIYLASYLESGVPDRFSGSGSGTDFTLTISSVQAEDVAVYYCQHSRDLTFPFGGGTKLEIK
notes: also called h5H23; h5H23 (Prep 1)
[1]
  Binding Reactivity (% WT): 16.9 % WT
[2]
  Binding Reactivity (% WT): 1.64 % WT
